Data: IntAct's records for PubMed 22238662

B1: Adhesion G-protein coupled receptor G1 (Mus musculus), Q8K209 (parent)
chain: MAVQVLRQMVYFLLSLFSLVQGAHSGSPREDFRFCGQRNQTQQSTLHYDQSSEPHIFVWNTEETLTIRAPFLAAPDIPRFFPEPRGLYHFCLYWSRHTGRLHLRYGKHDYLLSSQASRLLCFQKQEQSLKQGAPLIATSVSSWQIPQNTSLPGAPSFIFSFHNAPHKVSHNASVDMCDLKKELQQLSRYLQHPQKAAKRPTAAFISQQLQSLESKLTSVSFLGDTLSFEEDRVNATVWKLPPTAGLEDLHIHSQKEEEQSEVQAYSLLLPRAVFQQTRGRRRDDAKRLLVVDFSSQALFQDKNSSQVLGEKVLGIVVQNTKVTNLSDPVVLTFQHQPQPKNVTLQCVFWVEDPASSSTGSWSSAGCETVSRDTQTSCLCNHLTYFAVLMVSSTEVEATHKHYLTLLSYVGCVISALACVFTIAAYLCSRRKSRDYTIKVHMNLLSAVFLLDVSFLLSEPVALTGSEAACRTSAMFLHFSLLACLSWMGLEGYNLYRLVVEVFGTYVPGYLLKLSIVGWGFPVFLVTLVALVDVNNYGPIILAVRRTPERVTYPSMCWIRDSLVSYVTNLGLFSLVFLFNLAMLATMVVQILRLRPHSQNWPHVLTLLGLSLVLGLPWALVFFSFASGTFQLVILYLFSIITSFQGFLIFLWYWSMRFQAQGGPSPLKNNSDSAKLPISSGSTSSSRI

Variants of: B1
Conditions: with co3a1_mouse Col3a1, P08121
Chain of co3a1_mouse Col3a1, P08121 (P08121 whole entry): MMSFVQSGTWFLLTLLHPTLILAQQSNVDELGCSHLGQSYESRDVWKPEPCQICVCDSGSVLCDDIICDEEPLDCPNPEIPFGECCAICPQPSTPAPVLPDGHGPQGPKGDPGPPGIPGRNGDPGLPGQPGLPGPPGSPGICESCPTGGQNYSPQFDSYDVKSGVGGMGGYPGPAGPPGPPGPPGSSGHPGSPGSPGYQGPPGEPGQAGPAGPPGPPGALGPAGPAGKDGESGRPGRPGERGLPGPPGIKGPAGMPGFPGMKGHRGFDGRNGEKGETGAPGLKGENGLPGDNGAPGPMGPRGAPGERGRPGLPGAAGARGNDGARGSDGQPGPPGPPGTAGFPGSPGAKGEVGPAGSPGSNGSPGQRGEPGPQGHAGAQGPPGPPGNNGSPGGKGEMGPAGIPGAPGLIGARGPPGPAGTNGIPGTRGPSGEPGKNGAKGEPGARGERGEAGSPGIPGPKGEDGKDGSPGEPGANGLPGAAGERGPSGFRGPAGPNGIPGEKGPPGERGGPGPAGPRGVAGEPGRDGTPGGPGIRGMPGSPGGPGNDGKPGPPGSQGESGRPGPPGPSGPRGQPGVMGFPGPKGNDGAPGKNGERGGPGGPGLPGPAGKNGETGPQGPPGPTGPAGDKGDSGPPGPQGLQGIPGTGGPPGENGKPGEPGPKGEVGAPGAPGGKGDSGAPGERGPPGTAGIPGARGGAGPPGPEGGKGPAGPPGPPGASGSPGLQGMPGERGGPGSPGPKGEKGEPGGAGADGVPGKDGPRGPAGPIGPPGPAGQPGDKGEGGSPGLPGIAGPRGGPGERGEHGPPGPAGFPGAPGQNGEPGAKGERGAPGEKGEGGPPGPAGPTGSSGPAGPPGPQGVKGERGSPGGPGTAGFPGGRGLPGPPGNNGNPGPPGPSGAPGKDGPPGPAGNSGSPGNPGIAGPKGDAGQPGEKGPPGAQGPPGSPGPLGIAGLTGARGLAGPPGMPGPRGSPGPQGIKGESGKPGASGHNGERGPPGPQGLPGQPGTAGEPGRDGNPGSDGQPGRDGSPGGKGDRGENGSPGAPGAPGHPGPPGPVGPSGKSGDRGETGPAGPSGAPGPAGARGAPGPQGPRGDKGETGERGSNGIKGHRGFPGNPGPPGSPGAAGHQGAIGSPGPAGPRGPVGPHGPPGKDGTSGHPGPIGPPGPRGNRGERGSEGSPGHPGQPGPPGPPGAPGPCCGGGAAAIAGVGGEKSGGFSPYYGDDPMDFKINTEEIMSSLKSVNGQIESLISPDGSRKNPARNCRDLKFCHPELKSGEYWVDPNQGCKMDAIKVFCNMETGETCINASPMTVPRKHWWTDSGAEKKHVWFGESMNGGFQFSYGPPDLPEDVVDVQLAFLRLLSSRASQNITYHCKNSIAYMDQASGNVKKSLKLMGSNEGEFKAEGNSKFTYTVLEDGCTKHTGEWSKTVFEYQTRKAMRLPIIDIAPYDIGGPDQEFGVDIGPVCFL

Row | effect of a mutation on the interaction | Variant
1 | disrupting interaction | C91S
2 | disrupting interaction | Y88C

The next lines start with the variant.

Row | Variant | effect of a mutation on the interaction
3 | R38Q | disrupting interaction
4 | R38W | disrupting interaction
